Experiments:
Assay in all cases: holdup assay
Parameters in all cases: key: below the threshold = too weak to quantify, mostly under pKd 3.1 to 4
SNTG2, Q9NY99 = target: T1, SNTG2, Q9NY99
T1 sequence (Q9NY99 68-166, limits assumed, looked up): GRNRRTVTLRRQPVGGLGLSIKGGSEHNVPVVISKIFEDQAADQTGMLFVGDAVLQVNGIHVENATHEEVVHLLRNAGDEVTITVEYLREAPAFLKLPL

NHERF4_2, Q86UT5 = target: NHERF4_2, Q86UT5
LNX1_1, Q8TBB1 = target: LNX1_1, Q8TBB1
MAGI2_5, Q86UL8 = target: MAGI2_5, Q86UL8
LIN7A, O14910 = target: T2, LIN7A, O14910
T2 sequence (O14910 103-200, limits assumed, looked up): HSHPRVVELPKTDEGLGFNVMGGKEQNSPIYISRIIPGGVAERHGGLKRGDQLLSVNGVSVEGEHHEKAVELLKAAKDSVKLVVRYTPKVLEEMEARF

PDZRN3_1, Q9UPQ7 = target: T3, PDZRN3_1, Q9UPQ7
T3 sequence (Q9UPQ7 244-349, limits assumed, looked up): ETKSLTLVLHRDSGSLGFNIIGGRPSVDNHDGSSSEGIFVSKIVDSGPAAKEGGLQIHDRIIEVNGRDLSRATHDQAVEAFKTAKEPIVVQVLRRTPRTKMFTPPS

PICK1, Q9NRD5 = target: PICK1, Q9NRD5
Sequence of PICK1, Q9NRD5 (Q9NRD5 17-115): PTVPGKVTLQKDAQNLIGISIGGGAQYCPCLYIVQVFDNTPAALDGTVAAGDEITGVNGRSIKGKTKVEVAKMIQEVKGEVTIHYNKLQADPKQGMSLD

LIMK2, P53671 = target: LIMK2, P53671
Sequence of LIMK2, P53671 (P53671 143-248): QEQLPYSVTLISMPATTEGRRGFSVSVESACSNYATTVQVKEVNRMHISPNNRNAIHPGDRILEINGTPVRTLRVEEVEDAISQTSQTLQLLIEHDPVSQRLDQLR

IL16_3, Q14005 = target: IL16_3, Q14005
Sequence of IL16_3, Q14005 (Q14005 1107-1207): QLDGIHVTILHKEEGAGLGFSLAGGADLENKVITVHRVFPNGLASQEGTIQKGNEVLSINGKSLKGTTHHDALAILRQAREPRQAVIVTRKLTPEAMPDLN

HTRA4, P83105 = target: T4, HTRA4, P83105
T4 sequence (P83105 378-476, limits assumed, looked up): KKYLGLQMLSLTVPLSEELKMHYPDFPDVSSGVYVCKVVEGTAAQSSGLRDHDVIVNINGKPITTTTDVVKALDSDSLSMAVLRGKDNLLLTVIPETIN

Inadl_9, Q8NI35 = target: Inadl_9, Q8NI35
Sequence of Inadl_9, Q8NI35 (Q8NI35 1530-1615): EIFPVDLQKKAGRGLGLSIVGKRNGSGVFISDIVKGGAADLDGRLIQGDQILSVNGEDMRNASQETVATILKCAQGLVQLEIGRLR

RAPGEF6, Q8TEU7 = target: T5, RAPGEF6, Q8TEU7
T5 sequence (Q8TEU7 525-625, limits assumed, looked up): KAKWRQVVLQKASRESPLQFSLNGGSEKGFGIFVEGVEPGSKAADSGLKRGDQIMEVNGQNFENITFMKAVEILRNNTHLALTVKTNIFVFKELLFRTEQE

DLG4_1, P78352 = target: DLG4_1, P78352
Sequence of DLG4_1, P78352 (P78352 62-152): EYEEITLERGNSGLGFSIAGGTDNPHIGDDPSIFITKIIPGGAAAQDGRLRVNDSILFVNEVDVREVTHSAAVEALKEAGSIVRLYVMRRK

PARD3B_1, Q8TEW8 = target: T6, PARD3B_1, Q8TEW8
T6 sequence (Q8TEW8 196-299, limits assumed, looked up): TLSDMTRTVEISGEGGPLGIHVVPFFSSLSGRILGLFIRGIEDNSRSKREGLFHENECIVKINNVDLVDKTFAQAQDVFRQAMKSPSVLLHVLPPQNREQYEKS

Inadl_3, Q8NI35 = target: Inadl_3, Q8NI35
Sequence of Inadl_3, Q8NI35 (Q8NI35 359-469): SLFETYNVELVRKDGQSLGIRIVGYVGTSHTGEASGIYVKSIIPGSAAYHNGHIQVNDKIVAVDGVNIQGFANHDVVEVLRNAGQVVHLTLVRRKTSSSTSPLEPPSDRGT

MPP7, Q5T2T1 = target: T7, MPP7, Q5T2T1
T7 sequence (Q5T2T1 134-230, limits assumed, looked up): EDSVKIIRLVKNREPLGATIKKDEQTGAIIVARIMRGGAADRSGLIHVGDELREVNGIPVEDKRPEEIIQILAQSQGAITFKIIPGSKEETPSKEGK

FRMPD4, Q14CM0 = target: FRMPD4, Q14CM0
Sequence of FRMPD4, Q14CM0 (Q14CM0 67-160): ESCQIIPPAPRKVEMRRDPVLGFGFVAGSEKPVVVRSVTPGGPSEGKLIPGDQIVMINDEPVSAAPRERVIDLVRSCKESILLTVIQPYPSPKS

MAST1, Q9Y2H9 = target: MAST1, Q9Y2H9
Sequence of MAST1, Q9Y2H9 (Q9Y2H9 962-1065): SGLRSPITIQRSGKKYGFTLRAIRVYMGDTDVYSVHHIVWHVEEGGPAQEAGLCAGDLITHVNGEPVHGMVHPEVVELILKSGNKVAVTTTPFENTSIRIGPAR

NHERF2_2, Q15599 = target: NHERF2_2, Q15599
Sequence of NHERF2_2, Q15599 (Q15599 142-238): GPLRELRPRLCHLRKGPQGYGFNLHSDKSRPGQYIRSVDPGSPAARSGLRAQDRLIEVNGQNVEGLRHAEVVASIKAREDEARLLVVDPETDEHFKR

SCRIB_3, Q14160 = target: SCRIB_3, Q14160
Sequence of SCRIB_3, Q14160 (Q14160 999-1103): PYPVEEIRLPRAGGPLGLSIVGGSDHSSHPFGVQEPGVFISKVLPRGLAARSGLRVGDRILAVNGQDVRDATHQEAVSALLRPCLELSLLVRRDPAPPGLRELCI

HTRA1, Q92743 = target: HTRA1, Q92743
Sequence of HTRA1, Q92743 (Q92743 360-477): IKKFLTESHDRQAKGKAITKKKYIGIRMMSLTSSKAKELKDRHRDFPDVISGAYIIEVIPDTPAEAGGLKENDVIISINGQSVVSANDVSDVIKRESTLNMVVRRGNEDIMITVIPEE

MAGI1_2, Q96QZ7 = target: MAGI1_2, Q96QZ7
Sequence of MAGI1_2, Q96QZ7 (Q96QZ7 456-580): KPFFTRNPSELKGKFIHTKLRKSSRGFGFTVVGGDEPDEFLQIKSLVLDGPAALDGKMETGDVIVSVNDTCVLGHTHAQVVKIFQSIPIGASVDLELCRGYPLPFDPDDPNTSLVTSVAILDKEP

NHERF3_4, Q5T2W1 = target: T8, NHERF3_4, Q5T2W1
T8 sequence (Q5T2W1 373-468, limits assumed, looked up): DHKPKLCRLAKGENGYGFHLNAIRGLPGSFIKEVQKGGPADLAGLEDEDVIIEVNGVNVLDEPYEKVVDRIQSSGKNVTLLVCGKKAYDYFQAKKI

MAGI2_3, Q86UL8 = target: MAGI2_3, Q86UL8
Sequence of MAGI2_3, Q86UL8 (Q86UL8 600-682): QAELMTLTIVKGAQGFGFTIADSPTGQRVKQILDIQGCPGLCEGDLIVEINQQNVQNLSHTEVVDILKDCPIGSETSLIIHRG

DLG3_2, Q92796 = target: T9, DLG3_2, Q92796
T9 sequence (Q92796 221-321, limits assumed, looked up): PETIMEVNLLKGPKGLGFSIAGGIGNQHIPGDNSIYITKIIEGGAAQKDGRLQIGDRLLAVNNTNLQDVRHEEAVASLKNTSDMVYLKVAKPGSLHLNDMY

SNTG1, Q9NSN8 = target: T10, SNTG1, Q9NSN8
T10 sequence (Q9NSN8 52-150, limits assumed, looked up): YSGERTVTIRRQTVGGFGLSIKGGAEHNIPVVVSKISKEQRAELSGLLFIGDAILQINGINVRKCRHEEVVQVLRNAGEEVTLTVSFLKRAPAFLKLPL

GRIP2_7, Q9C0E4 = target: GRIP2_7, Q9C0E4
Sequence of GRIP2_7, Q9C0E4 (Q9C0E4 934-1023): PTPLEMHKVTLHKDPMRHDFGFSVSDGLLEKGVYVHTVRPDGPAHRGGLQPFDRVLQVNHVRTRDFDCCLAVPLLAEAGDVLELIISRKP

[1] = plain residues with an end cap or a label only (N-terminal biotin on a linker: ttds)
[2] = plain residues with an end cap or a label only (N-terminal biotin on a linker: ahx)
[3] = plain residues with an end cap or a label only (N-terminal biotin on a linker: ado-ado)

Sequence of LNX1_1, Q8TBB1 (Q8TBB1 261-371): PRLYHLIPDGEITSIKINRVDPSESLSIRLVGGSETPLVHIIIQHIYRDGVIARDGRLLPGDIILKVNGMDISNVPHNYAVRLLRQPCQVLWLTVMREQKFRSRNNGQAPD
Sequence of MAGI2_5, Q86UL8 (Q86UL8 915-1017): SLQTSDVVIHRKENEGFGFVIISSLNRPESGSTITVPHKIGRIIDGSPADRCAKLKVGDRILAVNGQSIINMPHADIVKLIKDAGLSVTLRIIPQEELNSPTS
Sequence of NHERF4_2, Q86UT5 (Q86UT5 220-308): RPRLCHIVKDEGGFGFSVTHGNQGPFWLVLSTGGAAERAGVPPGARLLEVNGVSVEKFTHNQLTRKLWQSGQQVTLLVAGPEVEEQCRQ

Binder: HIVEALETDV [PBK, Q96KB5]
- pKd (SNTG2, Q9NY99; [1]): 4.85
- pKd (NHERF4_2, Q86UT5; [1]): below the threshold
- pKd (LNX1_1, Q8TBB1; [1]): 4.51
- pKd (MAGI2_5, Q86UL8; [1]): 3.98
- pKd (LIN7A, O14910; [1]): below the threshold
- pKd (PDZRN3_1, Q9UPQ7; [1]): below the threshold
- pKd (PICK1, Q9NRD5; [1]): below the threshold
- pKd (LIMK2, P53671; [1]): below the threshold
- pKd (IL16_3, Q14005; [1]): below the threshold
- pKd (HTRA4, P83105; [1]): below the threshold
- pKd (Inadl_9, Q8NI35; [1]): below the threshold
- pKd (RAPGEF6, Q8TEU7; [1]): below the threshold
- pKd (DLG4_1, P78352; [1]): 5.11
- pKd (PARD3B_1, Q8TEW8; [1]): below the threshold
- pKd (Inadl_3, Q8NI35; [1]): 4.46
- pKd (MPP7, Q5T2T1; [1]): below the threshold
- pKd (FRMPD4, Q14CM0; [1]): below the threshold
- pKd (MAST1, Q9Y2H9; [1]): 5.15
- pKd (NHERF2_2, Q15599; [1]): 3.97
- pKd (SCRIB_3, Q14160; [1]): 5.18
- pKd (HTRA1, Q92743; [1]): below the threshold
- pKd (MAGI1_2, Q96QZ7; [1]): below the threshold
- pKd (NHERF3_4, Q5T2W1; [1]): below the threshold
- pKd (MAGI2_3, Q86UL8; [1]): 3.93
- pKd (DLG3_2, Q92796; [1]): 5.71
- pKd (SNTG1, Q9NSN8; [1]): 5.68
- pKd (GRIP2_7, Q9C0E4; [1]): 3.91

Binder: MERLRVETDV [ARHGEF16, Q5VV41]
- pKd (SNTG2, Q9NY99; [1]): 4.47
- pKd (NHERF4_2, Q86UT5; [1]): below the threshold
- pKd (LNX1_1, Q8TBB1; [1]): 4.03
- pKd (MAGI2_5, Q86UL8; [1]): below the threshold
- pKd (LIN7A, O14910; [1]): below the threshold
- pKd (PDZRN3_1, Q9UPQ7; [1]): 3.53
- pKd (PICK1, Q9NRD5; [1]): below the threshold
- pKd (LIMK2, P53671; [1]): below the threshold
- pKd (IL16_3, Q14005; [1]): below the threshold
- pKd (HTRA4, P83105; [1]): 3.74
- pKd (Inadl_9, Q8NI35; [1]): below the threshold
- pKd (RAPGEF6, Q8TEU7; [1]): below the threshold
- pKd (DLG4_1, P78352; [1]): 5.13
- pKd (PARD3B_1, Q8TEW8; [1]): below the threshold
- pKd (Inadl_3, Q8NI35; [1]): 3.8
- pKd (MPP7, Q5T2T1; [1]): 3.54
- pKd (FRMPD4, Q14CM0; [1]): below the threshold
- pKd (MAST1, Q9Y2H9; [1]): 4.39
- pKd (NHERF2_2, Q15599; [1]): below the threshold
- pKd (SCRIB_3, Q14160; [1]): 5.21
- pKd (HTRA1, Q92743; [1]): below the threshold
- pKd (MAGI1_2, Q96QZ7; [1]): 3.9
- pKd (NHERF3_4, Q5T2W1; [1]): below the threshold
- pKd (MAGI2_3, Q86UL8; [1]): 3.53
- pKd (DLG3_2, Q92796; [1]): 5.61
- pKd (SNTG1, Q9NSN8; [1]): 4.89
- pKd (GRIP2_7, Q9C0E4; [1]): 3.64

Binder: EKLSSIESDV [GRIN2B, Q13224]
- pKd (SNTG2, Q9NY99; [2]): 4.04
- pKd (NHERF4_2, Q86UT5; [2]): below the threshold
- pKd (LNX1_1, Q8TBB1; [2]): 4.13
- pKd (MAGI2_5, Q86UL8; [2]): 3.82
- pKd (LIN7A, O14910; [2]): below the threshold
- pKd (PDZRN3_1, Q9UPQ7; [2]): 3.7
- pKd (PICK1, Q9NRD5; [2]): below the threshold
- pKd (LIMK2, P53671; [2]): below the threshold
- pKd (IL16_3, Q14005; [2]): 3.57
- pKd (HTRA4, P83105; [2]): below the threshold
- pKd (Inadl_9, Q8NI35; [2]): below the threshold
- pKd (RAPGEF6, Q8TEU7; [2]): below the threshold
- pKd (DLG4_1, P78352; [2]): 4.37
- pKd (PARD3B_1, Q8TEW8; [2]): below the threshold
- pKd (Inadl_3, Q8NI35; [2]): 3.91
- pKd (MPP7, Q5T2T1; [2]): below the threshold
- pKd (FRMPD4, Q14CM0; [2]): below the threshold
- pKd (MAST1, Q9Y2H9; [2]): 4.04
- pKd (NHERF2_2, Q15599; [2]): below the threshold
- pKd (SCRIB_3, Q14160; [2]): 4.28
- pKd (HTRA1, Q92743; [2]): below the threshold
- pKd (MAGI1_2, Q96QZ7; [2]): below the threshold
- pKd (NHERF3_4, Q5T2W1; [2]): below the threshold
- pKd (MAGI2_3, Q86UL8; [2]): below the threshold
- pKd (DLG3_2, Q92796; [2]): 4.96
- pKd (SNTG1, Q9NSN8; [2]): 4.8
- pKd (GRIP2_7, Q9C0E4; [2]): 3.53

Binder: SVVSERISSV [HTR2C, P28335]
- pKd (SNTG2, Q9NY99; [3]): below the threshold
- pKd (NHERF4_2, Q86UT5; [3]): below the threshold
- pKd (LNX1_1, Q8TBB1; [3]): below the threshold
- pKd (MAGI2_5, Q86UL8; [3]): 4.01
- pKd (LIN7A, O14910; [3]): below the threshold
- pKd (PDZRN3_1, Q9UPQ7; [3]): 3.51
- pKd (PICK1, Q9NRD5; [3]): below the threshold
- pKd (LIMK2, P53671; [3]): below the threshold
- pKd (IL16_3, Q14005; [3]): below the threshold
- pKd (HTRA4, P83105; [3]): below the threshold
- pKd (Inadl_9, Q8NI35; [3]): below the threshold
- pKd (RAPGEF6, Q8TEU7; [3]): below the threshold
- pKd (DLG4_1, P78352; [3]): 3.94
- pKd (PARD3B_1, Q8TEW8; [3]): below the threshold
- pKd (Inadl_3, Q8NI35; [3]): below the threshold
- pKd (MPP7, Q5T2T1; [3]): below the threshold
- pKd (FRMPD4, Q14CM0; [3]): below the threshold
- pKd (MAST1, Q9Y2H9; [3]): 4.02
- pKd (NHERF2_2, Q15599; [3]): below the threshold
- pKd (SCRIB_3, Q14160; [3]): 3.71
- pKd (HTRA1, Q92743; [3]): 4.18
- pKd (MAGI1_2, Q96QZ7; [3]): below the threshold
- pKd (NHERF3_4, Q5T2W1; [3]): below the threshold
- pKd (MAGI2_3, Q86UL8; [3]): 4.3
- pKd (DLG3_2, Q92796; [3]): 4.68
- pKd (SNTG1, Q9NSN8; [3]): 4.06
- pKd (GRIP2_7, Q9C0E4; [3]): below the threshold
